Assay results published in paper PMC12682122.

Target: alpha-enolase (baker's yeast) (baker's yeast) (UniProt P00924)
Test: cross-linking; 1 mg/ml alpha-enolase in PBS with BVSS-Me, BVSS-Et, BVSS-Ph, Alkyne-BVSC or DSBSO (1 mM, 1 h, 37 °C; DSBSO 30 min RT); SDS-PAGE, Coomassie stain; DMSO as negative control

Q: For “alpha-enolase (baker's yeast) (from UniProt P00924 1-437) (enzyme)”, which stoichiometry N is on record?
A: The stoichiometry N was 2.
